Common to all, as to test: 125I-PP displacement
The target in test [1] is T1, human Y4 receptor (human, UniProt P50391 1-375).
Test [2] concerns the target T1, human Y4 receptor. This is another data set of the same source.
The target of test [3] is T1, human Y4 receptor. The source holds these as a separate data set.

The source of these data is patent publication US20100279930A1 (published 2010).

Read-outs that look alike come from different tables or passages of the source.

What is called IC50 is the concentration that gives 50% inhibition. High values mean a need for much substance, low ones inhibition by little substance.

T1 sequence (P50391 whole entry): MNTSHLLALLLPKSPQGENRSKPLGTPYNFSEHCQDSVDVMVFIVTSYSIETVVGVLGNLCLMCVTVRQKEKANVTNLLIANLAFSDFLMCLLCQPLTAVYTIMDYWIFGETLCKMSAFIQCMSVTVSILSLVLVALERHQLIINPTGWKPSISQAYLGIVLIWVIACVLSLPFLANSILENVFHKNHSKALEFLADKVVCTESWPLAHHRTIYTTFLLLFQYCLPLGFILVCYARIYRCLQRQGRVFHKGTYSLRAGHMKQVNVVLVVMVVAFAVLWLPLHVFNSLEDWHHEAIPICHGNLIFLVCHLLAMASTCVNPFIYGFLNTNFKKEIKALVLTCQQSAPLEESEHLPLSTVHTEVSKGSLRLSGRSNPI

Take PLEPSYPGDNATPEQLAKYAAELRRYINKLTRPRY [4058912]: in the test with human Y4 receptor [1], the IC50 worked out at 49.5 pM.

In turn, APLEPSYPGDNATPEQLAKYAAELRRYINKLTRPRY [4058913] yielded an IC50 with human Y4 receptor [1] of 77.5 pM. In the case of PAPLEPKYPGDNATPEEMAKYAAELRRYIDKLTRPRY [4061237], in the test with human Y4 receptor [2], the IC50 turned out to be 160 pM. Molecule GAPLEPKYPGDNATPEEMAKYAAELRRYIDKLTRPRY [4061238] displayed an IC50 with human Y4 receptor [2] of 138 pM.

Molecule AAPLEPVYPGDNATPEQMAKYAADLRRYINKLTRPRY [compound of SEQ ID NO:348 (Ala 0, Lys19, Lys 30, code 4056385)] yielded a half-maximal inhibitory concentration (IC50) with human Y4 receptor [3] of 51 pM. Consider PAPLEPKYPGDNATPEQMAKYAAELRRYINKLTRPRY [4068672], for which the IC50 with human Y4 receptor [2] was 59 pM.

In the case of GAPLEPKYPGDNATPEEMAKYAAELRRYINKLTRPRY [4058911], the IC50 in the test with human Y4 receptor [1] came out at 77 pM. PLEPHYPGDDATPQQMAHYYSELRRYINKLTRPRY [4457895] yielded an IC50 in the test with human Y4 receptor [2] of 145 pM. In the case of PAPLEPTYPGDNATPEEKAKYYSELRRYINKLTRPRY [4061239], the IC50 with human Y4 receptor [2] was 54 pM. Regarding PAPLEPKYPGDNATPEEKAKYAAELRRYINKLTRPRY [4061235], in the test with human Y4 receptor [2], the half-maximal inhibitory concentration (IC50) amounted to 54 pM.
